Measurements from article PMC9168836, “Clamping of DNA shuts the condensin neck gate” (Proceedings of the National Academy of Sciences of the …, 2021).

Columns and labels:
[1] = molecular target: Smc2;Smc4;Brn1 (kleisin);Ycs4 (HAWK) (Saccharomyces cerevisiae;Saccharomyces …, UniProt P38989;Q12267;P38170;Q06156 1-1170;1-1418;1-754;1-1176, |||); assay: cryo-EM structure; condensin tetramer; ADP.BeF3, Mg2+; clamped head module Form I, 2.95 A; 30 mM Tris/HCl pH 7.5, 60 mM NaCl, 1 mM TCEP, 2 mM MgCl2, 5 mM ADP, 1 mM BeSO4, 10 mM NaF; 30 min at room temperature; 1-2 uM 80-bp DNA or 100 nM circular DNA; conditions: protein: recombinant;recombinant;recombinant;recombinant; copies: 1;1;1;1; blunt
[2] = molecular target: Smc2;Smc4;Brn1 (kleisin);Ycs4 (HAWK);Ycg1 (HAWK) (Saccharomyces cerevisiae;Saccharomyces …, UniProt P38989;Q12267;P38170;Q06156;Q06680 1-1170;1-1418;1-754;1-1176;1-1035, ||||); assay: cryo-EM structure; condensin pentamer; ADP.BeF3, Mg2+; clamped head module map EMD-13785, Ycg1 not on head module; 30 mM Tris/HCl pH 7.5, 60 mM NaCl, 1 mM TCEP, 2 mM MgCl2, 5 mM ADP, 1 mM BeSO4, 10 mM NaF; 30 min at room temperature; 1-2 uM 80-bp DNA or 100 nM circular DNA; conditions: protein: recombinant;recombinant;recombinant;recombinant;recombinant; copies: 1;1;1;1;1; blunt
[3] = molecular target: Ycg1 (HAWK);Brn1 (kleisin) (Saccharomyces cerevisiae;Saccharomyces …, UniProt Q06680;P38170 1-1035;1-754, |); assay: cryo-EM structure; Ycg1-Brn1 part of the condensin pentamer; ADP.BeF3, Mg2+ in sample; 3.2 A; 30 mM Tris/HCl pH 7.5, 60 mM NaCl, 1 mM TCEP, 2 mM MgCl2, 5 mM ADP, 1 mM BeSO4, 10 mM NaF; 30 min at room temperature; 1-2 uM 80-bp DNA or 100 nM circular DNA; conditions: protein: recombinant;recombinant; tags: see P1;see P1; copies: 1;1; blunt

Measured: binding result

Smc2;Smc4;Brn1 (kleisin);Ycs4 (HAWK), sequence (P38989 whole entry, chain 1 of 4): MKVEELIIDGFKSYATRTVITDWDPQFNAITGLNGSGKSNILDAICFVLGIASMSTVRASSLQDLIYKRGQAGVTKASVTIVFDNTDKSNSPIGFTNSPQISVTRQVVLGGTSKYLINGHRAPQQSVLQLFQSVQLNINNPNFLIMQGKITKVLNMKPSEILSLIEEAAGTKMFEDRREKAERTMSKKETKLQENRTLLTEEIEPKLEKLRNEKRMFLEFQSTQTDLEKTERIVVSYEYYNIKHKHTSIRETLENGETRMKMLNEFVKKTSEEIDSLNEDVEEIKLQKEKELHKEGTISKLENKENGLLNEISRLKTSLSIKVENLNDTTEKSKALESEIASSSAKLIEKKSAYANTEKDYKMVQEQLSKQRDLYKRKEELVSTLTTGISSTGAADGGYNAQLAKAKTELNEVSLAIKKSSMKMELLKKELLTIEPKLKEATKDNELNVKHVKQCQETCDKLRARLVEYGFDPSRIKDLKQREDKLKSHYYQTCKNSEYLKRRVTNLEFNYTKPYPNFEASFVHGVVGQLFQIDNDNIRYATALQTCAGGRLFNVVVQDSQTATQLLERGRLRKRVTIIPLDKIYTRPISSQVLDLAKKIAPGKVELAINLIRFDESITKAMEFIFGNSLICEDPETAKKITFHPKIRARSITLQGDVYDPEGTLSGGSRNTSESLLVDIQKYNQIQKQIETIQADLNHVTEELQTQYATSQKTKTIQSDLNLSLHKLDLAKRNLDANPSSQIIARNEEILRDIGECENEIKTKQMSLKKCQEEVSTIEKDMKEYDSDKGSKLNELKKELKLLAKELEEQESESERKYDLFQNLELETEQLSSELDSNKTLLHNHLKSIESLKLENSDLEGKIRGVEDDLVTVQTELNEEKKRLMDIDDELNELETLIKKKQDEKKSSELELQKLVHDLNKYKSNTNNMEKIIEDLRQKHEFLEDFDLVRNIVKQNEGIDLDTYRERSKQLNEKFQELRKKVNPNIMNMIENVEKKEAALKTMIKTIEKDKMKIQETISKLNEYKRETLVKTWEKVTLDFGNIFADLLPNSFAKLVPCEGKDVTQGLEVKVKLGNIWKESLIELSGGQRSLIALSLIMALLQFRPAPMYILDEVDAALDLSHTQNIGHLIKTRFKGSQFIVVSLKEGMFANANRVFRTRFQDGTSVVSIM
Smc2;Smc4;Brn1 (kleisin);Ycs4 (HAWK), sequence (Q12267 whole entry, chain 2 of 4): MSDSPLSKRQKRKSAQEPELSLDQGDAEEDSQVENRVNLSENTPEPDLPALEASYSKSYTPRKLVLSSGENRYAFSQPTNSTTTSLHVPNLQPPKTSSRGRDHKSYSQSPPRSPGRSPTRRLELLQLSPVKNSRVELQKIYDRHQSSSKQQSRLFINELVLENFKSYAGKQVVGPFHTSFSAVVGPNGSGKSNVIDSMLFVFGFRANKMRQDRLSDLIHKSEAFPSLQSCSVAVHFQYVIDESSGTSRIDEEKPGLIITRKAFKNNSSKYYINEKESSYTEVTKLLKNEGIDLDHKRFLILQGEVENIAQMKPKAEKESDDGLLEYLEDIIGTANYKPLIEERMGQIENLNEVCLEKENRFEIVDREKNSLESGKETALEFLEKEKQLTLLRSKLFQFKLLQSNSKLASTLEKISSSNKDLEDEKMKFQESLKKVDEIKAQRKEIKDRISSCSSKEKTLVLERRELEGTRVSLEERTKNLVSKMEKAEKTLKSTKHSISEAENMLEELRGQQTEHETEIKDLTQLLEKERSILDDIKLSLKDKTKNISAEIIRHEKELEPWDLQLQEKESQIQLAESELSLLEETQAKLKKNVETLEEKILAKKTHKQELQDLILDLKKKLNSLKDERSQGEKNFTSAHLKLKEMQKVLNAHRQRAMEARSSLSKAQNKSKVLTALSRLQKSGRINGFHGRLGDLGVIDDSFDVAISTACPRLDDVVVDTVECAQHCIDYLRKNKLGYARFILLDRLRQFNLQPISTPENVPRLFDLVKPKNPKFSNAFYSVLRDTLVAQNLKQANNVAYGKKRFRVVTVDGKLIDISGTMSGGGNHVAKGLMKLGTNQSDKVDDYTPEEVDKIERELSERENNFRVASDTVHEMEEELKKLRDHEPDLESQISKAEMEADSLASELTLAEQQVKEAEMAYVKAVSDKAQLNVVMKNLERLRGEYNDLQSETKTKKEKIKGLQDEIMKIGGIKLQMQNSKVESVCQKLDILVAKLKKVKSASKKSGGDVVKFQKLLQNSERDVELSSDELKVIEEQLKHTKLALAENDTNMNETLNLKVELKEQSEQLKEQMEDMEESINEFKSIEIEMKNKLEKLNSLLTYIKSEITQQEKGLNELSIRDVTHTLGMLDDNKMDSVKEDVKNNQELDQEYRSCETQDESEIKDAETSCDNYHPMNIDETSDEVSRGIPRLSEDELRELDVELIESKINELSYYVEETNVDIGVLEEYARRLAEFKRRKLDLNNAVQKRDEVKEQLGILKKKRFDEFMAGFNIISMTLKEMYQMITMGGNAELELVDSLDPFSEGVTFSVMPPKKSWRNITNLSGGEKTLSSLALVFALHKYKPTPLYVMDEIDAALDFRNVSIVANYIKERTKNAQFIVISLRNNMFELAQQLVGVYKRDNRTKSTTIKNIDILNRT
Smc2;Smc4;Brn1 (kleisin);Ycs4 (HAWK), sequence (P38170 whole entry, chain 3 of 4): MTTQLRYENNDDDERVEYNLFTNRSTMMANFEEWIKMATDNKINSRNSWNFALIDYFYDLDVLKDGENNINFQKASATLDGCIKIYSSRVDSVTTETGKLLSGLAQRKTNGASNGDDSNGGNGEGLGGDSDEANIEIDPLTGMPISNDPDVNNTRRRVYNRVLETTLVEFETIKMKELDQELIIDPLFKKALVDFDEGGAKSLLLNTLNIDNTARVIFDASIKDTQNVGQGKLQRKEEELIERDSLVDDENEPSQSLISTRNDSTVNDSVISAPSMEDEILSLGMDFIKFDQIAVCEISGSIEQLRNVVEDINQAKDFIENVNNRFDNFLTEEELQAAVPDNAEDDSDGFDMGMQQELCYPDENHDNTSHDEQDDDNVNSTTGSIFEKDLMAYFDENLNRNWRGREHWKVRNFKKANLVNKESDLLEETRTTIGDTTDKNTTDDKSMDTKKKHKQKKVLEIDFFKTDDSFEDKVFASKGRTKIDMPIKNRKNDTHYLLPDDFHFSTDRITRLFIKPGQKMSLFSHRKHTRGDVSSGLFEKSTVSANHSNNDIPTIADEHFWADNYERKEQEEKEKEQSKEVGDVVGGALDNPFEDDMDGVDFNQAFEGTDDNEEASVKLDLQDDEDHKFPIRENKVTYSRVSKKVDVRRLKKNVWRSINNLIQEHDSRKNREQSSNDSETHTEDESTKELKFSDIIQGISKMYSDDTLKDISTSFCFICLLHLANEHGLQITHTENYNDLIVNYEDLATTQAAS
Smc2;Smc4;Brn1 (kleisin);Ycs4 (HAWK), sequence (Q06156 whole entry, chain 4 of 4): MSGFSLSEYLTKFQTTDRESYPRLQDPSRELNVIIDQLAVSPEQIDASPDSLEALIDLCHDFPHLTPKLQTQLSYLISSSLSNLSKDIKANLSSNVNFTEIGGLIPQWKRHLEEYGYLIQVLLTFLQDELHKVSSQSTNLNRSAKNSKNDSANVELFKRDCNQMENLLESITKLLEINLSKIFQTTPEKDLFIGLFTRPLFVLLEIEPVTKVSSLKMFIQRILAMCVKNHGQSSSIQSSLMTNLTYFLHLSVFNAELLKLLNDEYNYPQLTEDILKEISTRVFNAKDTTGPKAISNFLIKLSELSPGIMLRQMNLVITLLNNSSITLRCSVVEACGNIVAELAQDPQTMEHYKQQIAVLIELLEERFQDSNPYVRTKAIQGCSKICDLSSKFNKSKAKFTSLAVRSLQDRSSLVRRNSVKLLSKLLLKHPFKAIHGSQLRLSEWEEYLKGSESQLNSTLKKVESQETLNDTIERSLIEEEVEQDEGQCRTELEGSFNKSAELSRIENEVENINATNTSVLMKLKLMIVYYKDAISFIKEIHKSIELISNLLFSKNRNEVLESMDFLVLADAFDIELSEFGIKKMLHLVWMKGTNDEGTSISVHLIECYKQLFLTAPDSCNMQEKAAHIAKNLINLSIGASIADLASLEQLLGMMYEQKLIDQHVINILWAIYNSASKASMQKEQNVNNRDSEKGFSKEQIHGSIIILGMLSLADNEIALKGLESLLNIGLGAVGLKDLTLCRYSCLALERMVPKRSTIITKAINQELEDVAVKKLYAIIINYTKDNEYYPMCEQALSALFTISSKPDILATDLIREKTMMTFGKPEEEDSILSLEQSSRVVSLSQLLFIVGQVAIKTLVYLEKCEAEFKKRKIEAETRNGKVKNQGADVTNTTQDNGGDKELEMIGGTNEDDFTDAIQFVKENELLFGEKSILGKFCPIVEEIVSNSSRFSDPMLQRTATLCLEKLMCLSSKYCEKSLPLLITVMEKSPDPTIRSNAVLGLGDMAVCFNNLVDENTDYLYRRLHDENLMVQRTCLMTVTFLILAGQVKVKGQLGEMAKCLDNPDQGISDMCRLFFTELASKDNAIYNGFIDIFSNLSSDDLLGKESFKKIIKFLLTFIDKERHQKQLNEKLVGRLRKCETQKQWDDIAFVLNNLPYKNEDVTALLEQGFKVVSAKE

B1: 80-bp dsDNA (dsDNA)
DNA 1: GAATTCGGTGCGCATAATGTATAATAAGATAAATAAGCTTAAGTTCTTCCGATGCATAATAACATAATACGTGACTTTAC
DNA 2: GTAAAGTCACGTATTATGTTATTATGCATCGGAAGAACTTAAGCTTATTTATCTTATTATACATTATGCGCACCGAATTC
binds: all assays above
